One assay concerns PANC1 spheroids. Briefly: 3D-spheroid growth assay, PANC1. It is filed as cell-based, human. Conditions: 3D floating PANC1 spheroids, 0.5 µM, treated day 0, 2, 4, 7, 9 over 10 days; vs vehicle [0.2% DMSO] and DRx-150 [10 µM]; n = 5. How it is done:
PANC1 cells were seeded at 2 × 10^3 in wells of a round bottom Nunclon™ Sphera™ 96 well-plate with ultra-low attachment coating (Thermo; #174925), containing 200 μL DMEM (2% FBS, 2 mM L-glutamine, 100 U/I Pen-Strep). To encourage spheroid formation, PANC1 cells were centrifuged at 250 × g for 10 min at room temperature. PANC1 spheroids were then allowed to grow for 3 days at 37 °C, 5% CO2, humidified air. Spheroids were then treated with appropriate concentration of DRx-peptide/afatinib by first removing 100 μL of media from each well (careful not to disturb spheroid), followed by addition of 100 μL drug at 2× concentration. Cells were treated five times over a 10 day period (day 0, 2, 4, 7 and 9). Spheroids were imaged on day 0, 2, 4, 7 and 10 using a Nikon Eclipse TS2 microscope and spheroid area quantified using Image J software. Data represented as a fold-difference of relative day 0 spheroid measurement (i.e., day 0 normalised to 1).

Assay [1] deals with T1, full-length human PDE8A1-MBP (human, UniProt O60658-1 1-829).
T1 construct: Phosphodiesterase 8A, isoform PDE8A1, human, full length; the tag was detected with an anti-MBP-HRP antibody (Abcam ab49923); also called human recombinant PDE8A1-MBP; source: recombinant
Briefly: peptide or protein array; human c-RAF 20mer peptides SPOT-synthesised on cellulose membrane; far western approach: 0.1 μM PDE8A1-MBP overnight at 4 °C in 1x TBS, 5% glycerol, pH 7.4; detected with αMBP-HRP and ECL; MBP alone as negative control; signal normalised to the strongest binding peptide. Conditions: both partners purified.

T1 sequence (O60658 whole entry, canonical isoform): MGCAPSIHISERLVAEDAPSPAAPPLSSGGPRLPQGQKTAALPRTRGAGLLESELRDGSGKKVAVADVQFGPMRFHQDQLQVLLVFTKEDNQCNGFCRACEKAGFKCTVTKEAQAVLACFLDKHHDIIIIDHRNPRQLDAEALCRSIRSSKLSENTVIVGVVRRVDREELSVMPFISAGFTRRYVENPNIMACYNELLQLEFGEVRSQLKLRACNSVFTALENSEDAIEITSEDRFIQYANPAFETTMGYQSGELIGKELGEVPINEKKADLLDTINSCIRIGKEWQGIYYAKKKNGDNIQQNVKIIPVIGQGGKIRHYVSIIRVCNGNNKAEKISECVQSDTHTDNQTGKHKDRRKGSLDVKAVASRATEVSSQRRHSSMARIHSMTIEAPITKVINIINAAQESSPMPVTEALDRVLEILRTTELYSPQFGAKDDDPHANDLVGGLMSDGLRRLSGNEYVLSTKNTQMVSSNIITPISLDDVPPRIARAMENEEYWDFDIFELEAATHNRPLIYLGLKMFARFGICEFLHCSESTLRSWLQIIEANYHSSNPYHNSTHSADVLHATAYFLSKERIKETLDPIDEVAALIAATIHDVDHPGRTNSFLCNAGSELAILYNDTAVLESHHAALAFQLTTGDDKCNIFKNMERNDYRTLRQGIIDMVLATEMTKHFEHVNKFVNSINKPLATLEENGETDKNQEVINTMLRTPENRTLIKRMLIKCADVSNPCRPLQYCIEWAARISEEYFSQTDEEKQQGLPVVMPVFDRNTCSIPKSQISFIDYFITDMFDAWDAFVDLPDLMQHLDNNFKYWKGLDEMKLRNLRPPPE

Take `CN(C)C/C=C/C(=O)Nc1cc2c(Nc3ccc(F)c(Cl)c3)ncnc2cc1O[C@H]1CCOC1` [afatinib, afatinib dimaleate]: the “relative spheroid area (fold-difference vs. Day 0)” value in the assay with PANC1 spheroids is reported as “significantly attenuated”.

B1: human c-RAF peptide 8 (F36–S55) (peptide, UniProt P04049 36-55, looked up)
peptide: FGYQRRASDDGKLTDPSKTS
notes: c-RAF, human, 20mer of the peptide array, residues F36–S55; source: synthetic peptide, SPOT synthesis on cellulose membrane
Consider B1, for which the binding result in assay [1] is “binds”.

B2: human c-RAF peptide 117 (M581–P600) (peptide, UniProt P04049 581-600, looked up)
peptide: MKRLVADCVKKVKEERPLFP
notes: c-RAF, human, 20mer of the peptide array, residues M581–P600; source: synthetic peptide, SPOT synthesis on cellulose membrane
Take B2: the binding result in assay [1] is “binds”.

B3: human c-RAF peptide 123 (H611–H630) (peptide, UniProt P04049 611-630, looked up)
peptide: HSLPKINRSASEPSLHRAAH
notes: c-RAF, human, 20mer of the peptide array, residues H611–H630; source: synthetic peptide, SPOT synthesis on cellulose membrane
Regarding B3, in assay [1], the binding result is “binds”.

B4: human c-RAF peptide 49 (N241–T260) (peptide, UniProt P04049 241-260, looked up)
peptide: NTSSPSSEGSLSQRQRSTST
notes: c-RAF, human, 20mer of the peptide array, residues N241–T260; source: synthetic peptide, SPOT synthesis on cellulose membrane
In the case of B4, the binding result in assay [1] is on record as “binds”.
